{
  "source": "patent US20160305947A1",
  "about": "(Merck Sharp & Dohme, published 2016)",
  "target": "T1, human PD-L1 (Programmed Cell Death 1 Ligand 1) (human, UniProt Q9NZQ7 19-290)",
  "T1 construct": "whole, on cells; The target is the endogenous protein in FFPE tumor tissue after antigen retrieval, not a recombinant construct; also called B7-H1; PDCD1L1",
  "T1 sequence (Q9NZQ7 19-290)": "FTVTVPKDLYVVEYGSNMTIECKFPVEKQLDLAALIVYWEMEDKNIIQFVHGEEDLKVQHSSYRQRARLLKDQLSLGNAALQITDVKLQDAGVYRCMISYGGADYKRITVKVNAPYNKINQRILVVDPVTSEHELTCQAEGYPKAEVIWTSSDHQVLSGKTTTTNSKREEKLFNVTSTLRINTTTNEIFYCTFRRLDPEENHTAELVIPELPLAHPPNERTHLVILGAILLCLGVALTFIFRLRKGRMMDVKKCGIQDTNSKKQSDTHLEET",
  "test": "IHC staining of FFPE human melanoma sections (chromogenic DAB and TSA fluorescence)",
  "experimental": "After deparaffinization, antigens were retrieved by immersing the slides into Flex TRS (high pH) and allowing the temperature inside the PT Link to reach 97° C. for 20 minutes. Once this time elapsed, the chamber temperature was cooled to 75° C. Slides were removed from the PT Link and cooled to room temperature in Flex wash buffer.\nSingle parameter chromogenic immunohistochemical staining was performed using a mouse monoclonal anti-PD-L1 antibody (clone 22C3) and the brown DAB chromogen (FIG. 1, left column) Multiparametric fluorescence immunohistochemistry was performed using the protocol detailed in Example 1. In brief, formalin-fixed paraffin-embedded sections were stained using an anti-PD1 antibody (polyclonal goat anti-hPD-1, green) and an anti-PD-L1 antibody (clone 22C3, red). Representative patterns of PD-1 and PD-L1 are depicted in the images in the right-hand column. […] PD-L1 can be identified as being either (1) spatially apart from PD-1+ T cells (A, right); (2) associated with a minimal PD-1+ infiltrate (B, right); (3) expressed in the absence of concomitant PD-1+ T cells (C, right); or (4) strongly expressed in tight spatial proximity to PD-1+CD8 T cells (D, right).",
  "data": [
    {"binder": "Mouse anti-human PD-L1 mAb (Clone 22C3) (antibody, mouse IgG1, kappa, V domains shown, Mouse IgG1, made in house, used at 2 ug/mL as the primary antibody in IHC; also called antibody 22C3; mouse monoclonal anti-PD-L1 antibody (clone 22C3)) VH: QVHLQQSGAELAKPGASVKMSCKASGYTFTSYWIHWIKQRPGQGLEWIGYINPSSGYHEYNQKFIDKATLTADRSSSTAYMHLTSLTSEDSAVYYCARSGWLIHGDYYFDFWGQGTTLTVSS VL: DIVMSQSPSSLAVSAGEKVTMTCKSSQSLLHTSTRKNYLAWYQQKPGQSPKLLIYWASTRESGVPDRFTGSGSGTDFTLTISSVQAEDLAVYYCKQSYDVVTFGAGTKLELKR", "values": [
      {"measurement": "binding result", "result": "binds"}
    ]}
  ]
}
